Test results published in publication PMC9645627, “Ydj1 interaction at nucleotide-binding-domain of yeast Ssa1 impacts Hsp90 collaboration and client maturation” (PLOS Genetics, 2022).

B1: His6-Ydj1 (natural protein, S. cerevisiae, UniProt P25491 1-409, looked up)
chain: MVKETKFYDILGVPVTATDVEIKKAYRKCALKYHPDKNPSEEAAEKFKEASAAYEILSDPEKRDIYDQFGEDGLSGAGGAGGFPGGGFGFGDDIFSQFFGAGGAQRPRGPQRGKDIKHEISASLEELYKGRTAKLALNKQILCKECEGRGGKKGAVKKCTSCNGQGIKFVTRQMGPMIQRFQTECDVCHGTGDIIDPKDRCKSCNGKKVENERKILEVHVEPGMKDGQRIVFKGEADQAPDVIPGDVVFIVSERPHKSFKRDGDDLVYEAEIDLLTAIAGGEFALEHVSGDWLKVGIVPGEVIAPGMRKVIEGKGMPIPKYGGYGNLIIKFTIKFPENHFTSEENLKKLEEILPPRIVPAIPKKATVDECVLADFDPAKYNRTRASRGGANYDSDEEEQGGEGVQCASQ
notes: Ydj1, Hsp40 co-chaperone of S. cerevisiae; His6 is named and used for capture in the pull-down; also called Hsp40
B2: Ssa1 (wt), purified (natural protein)
chain: not shown
notes: Ssa1, cytosolic Hsp70 of S. cerevisiae; the methods say that the tag was removed; also called wt-Ssa1; wt Ssa1; not shown: His6, N-terminal, cleaved
B3: Ssa1-D158N, purified (natural protein)
chain: not shown
notes: Ssa1, cytosolic Hsp70 of S. cerevisiae, with D158N; the methods say that the tag was removed; not shown: His6, N-terminal, cleaved
B4: Ssa1-T175N, purified (natural protein)
chain: not shown
notes: Ssa1, cytosolic Hsp70 of S. cerevisiae, with T175N; the methods say that the tag was removed; not shown: His6, N-terminal, cleaved

Tests used:
Ssa1 (wt), purified = target: B2; assay: BLI; Ssa1, Ssa2, Ssa3 and Ssa4 with Ydj1; set-up not told here (as in ref. 26)
Ssa1-T175N, purified = target: B4; assay: BLI; Ydj1 (0.75 uM) immobilised on the biosensor, Ssa Hsp70 at varying concentrations as analyte, with 5 mM ATP; conditions: both partners purified
Ssa1-D158N, purified = target: B3; assay: as above; conditions: both partners purified
Hsp82, purified [1] = target: T1, Hsp82, purified (S. cerevisiae, UniProt P02829 1-709); assay: BLI; Octet K2, 30°C; Hsp82 immobilised on AR2G biosensors by amine coupling; Hsp70 1.0 uM as analyte in 25 mM Hepes pH 7.4, 150 mM NaCl, 20 mM MgCl2, 20 mM KCl, 0.1% Tween-20, 0.05% Triton X-100, 1 mM ATP; association and dissociation 200 s each; conditions: both partners purified
T1 construct: Hsp82, Hsp90 isoform of S. cerevisiae; also called Hsp90; Hsp82 isoform of Hsp90; source: plasmid pET29bHTV-HSP82

His6-Ydj1 = target: B1; assay: cell-based or functional assay
Hsp82, purified [2] = target: T1, Hsp82, purified; assay: cell-based or functional assay

T1 sequence (P02829 whole entry, canonical isoform): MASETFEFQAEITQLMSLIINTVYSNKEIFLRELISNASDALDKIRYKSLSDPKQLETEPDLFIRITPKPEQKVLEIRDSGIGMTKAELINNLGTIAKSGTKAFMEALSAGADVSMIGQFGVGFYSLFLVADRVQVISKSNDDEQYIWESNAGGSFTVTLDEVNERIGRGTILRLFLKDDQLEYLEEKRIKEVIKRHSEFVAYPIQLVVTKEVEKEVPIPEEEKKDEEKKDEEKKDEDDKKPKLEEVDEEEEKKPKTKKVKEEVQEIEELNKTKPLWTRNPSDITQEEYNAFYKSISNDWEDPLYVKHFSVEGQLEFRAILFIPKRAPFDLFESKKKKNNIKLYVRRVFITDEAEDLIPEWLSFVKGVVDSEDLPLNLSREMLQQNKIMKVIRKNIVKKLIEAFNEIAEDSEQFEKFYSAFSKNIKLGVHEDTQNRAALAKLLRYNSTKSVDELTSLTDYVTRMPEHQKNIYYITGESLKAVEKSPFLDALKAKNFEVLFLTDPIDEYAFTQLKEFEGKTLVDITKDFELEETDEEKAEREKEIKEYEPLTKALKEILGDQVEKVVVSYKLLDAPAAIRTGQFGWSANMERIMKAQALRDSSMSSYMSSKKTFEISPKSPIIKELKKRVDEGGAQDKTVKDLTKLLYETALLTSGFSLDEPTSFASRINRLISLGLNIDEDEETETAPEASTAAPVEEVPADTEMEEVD
Ssa1-D158N, purified, sequence (P10591 whole entry D158N): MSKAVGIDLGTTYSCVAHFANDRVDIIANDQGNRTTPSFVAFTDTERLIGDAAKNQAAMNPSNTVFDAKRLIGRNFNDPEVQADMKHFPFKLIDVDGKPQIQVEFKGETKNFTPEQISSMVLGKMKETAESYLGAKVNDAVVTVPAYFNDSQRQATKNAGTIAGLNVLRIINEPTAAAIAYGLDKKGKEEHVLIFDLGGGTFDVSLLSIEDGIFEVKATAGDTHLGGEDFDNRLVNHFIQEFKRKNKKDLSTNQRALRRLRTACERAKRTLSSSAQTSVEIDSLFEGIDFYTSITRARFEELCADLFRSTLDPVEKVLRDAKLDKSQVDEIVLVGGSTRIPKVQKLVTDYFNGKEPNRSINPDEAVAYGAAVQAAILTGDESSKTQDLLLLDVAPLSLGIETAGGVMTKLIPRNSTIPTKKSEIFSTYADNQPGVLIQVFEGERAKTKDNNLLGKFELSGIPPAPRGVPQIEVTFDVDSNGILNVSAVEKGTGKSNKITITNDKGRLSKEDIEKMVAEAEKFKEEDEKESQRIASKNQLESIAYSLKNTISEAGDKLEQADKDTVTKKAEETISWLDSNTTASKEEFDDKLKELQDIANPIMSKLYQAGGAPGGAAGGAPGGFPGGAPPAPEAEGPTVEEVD
Ssa1-T175N, purified, sequence (P10591 whole entry T175N): as the sequence (P10591 whole entry D158N) above, with N158D, T175N counted along it
Ssa1 (wt), purified, sequence (P10591 whole entry): as the sequence (P10591 whole entry D158N) above, with N158D counted along it

| binding result (Ssa1 (wt), purified) | binding result (Ssa1-T175N, purified) | binding result (Ssa1-D158N, purified) | binding result (Hsp82, purified [1]) | refolding of heat-denatured luciferase by Hsp70 with Ydj1, fold, time course to 30 min (wt Ssa1:Ydj1: 30-fold) (His6-Ydj1) | fold increase in luciferase refolding upon addition of Hsp90 (Hsp82) and Sti1 to a reaction with Ydj1 and Hsp70 (wt Ssa1: 4) (Hsp82, purified [2]) | fold by which the BLI response of wt-Ssa1 at equilibrium is higher than that of this mutant (Hsp82, purified [1]) | Binder |
| --- | --- | --- | --- | --- | --- | --- | --- |
| binds | binds | binds |  |  |  |  | B1 |
|  |  |  | binds |  |  |  | B2 |
|  |  |  |  | ~60 fold | 2 fold | ~2 fold | B3 |
|  |  |  |  | ~60 fold | 2 fold | ~4 fold | B4 |
